Source: paper PMC4201622

Columns and labels:
[1] = molecular target: RPA heterotrimer (RPA70/RPA32/RPA14), full length (UniProt P27694;P15927;P35244 1-616;1-270;1-121); assay: EMSA
[2] = molecular target: RPA70 DBD-F (N-terminal domain) fused to MBP (UniProt P27694 1-120); assay: EMSA
RPA70 DBD-F (N-terminal domain) fused to MBP, sequence (P27694 1-120): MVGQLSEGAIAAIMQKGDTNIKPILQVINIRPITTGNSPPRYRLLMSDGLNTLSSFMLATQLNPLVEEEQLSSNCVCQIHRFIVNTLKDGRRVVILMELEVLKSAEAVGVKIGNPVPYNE

RPA heterotrimer (RPA70/RPA32/RPA14), full length, sequence (P27694 whole entry, chain 1 of 3, the tested form may be a part): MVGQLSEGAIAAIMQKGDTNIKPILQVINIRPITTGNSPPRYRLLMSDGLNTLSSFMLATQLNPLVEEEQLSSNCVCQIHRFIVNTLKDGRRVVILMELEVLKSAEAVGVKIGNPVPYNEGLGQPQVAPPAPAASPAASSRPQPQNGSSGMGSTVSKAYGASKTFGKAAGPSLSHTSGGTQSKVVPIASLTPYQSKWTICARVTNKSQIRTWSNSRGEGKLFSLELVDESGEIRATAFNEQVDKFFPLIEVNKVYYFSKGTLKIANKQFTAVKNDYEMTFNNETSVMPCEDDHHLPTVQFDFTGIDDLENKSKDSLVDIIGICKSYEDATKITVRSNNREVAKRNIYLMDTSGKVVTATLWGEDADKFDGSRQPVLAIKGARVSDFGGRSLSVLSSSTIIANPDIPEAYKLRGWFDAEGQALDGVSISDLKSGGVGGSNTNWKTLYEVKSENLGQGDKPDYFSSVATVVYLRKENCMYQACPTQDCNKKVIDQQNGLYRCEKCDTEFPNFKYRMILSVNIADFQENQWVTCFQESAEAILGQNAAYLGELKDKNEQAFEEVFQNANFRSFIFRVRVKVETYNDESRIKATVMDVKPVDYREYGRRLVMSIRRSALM
RPA heterotrimer (RPA70/RPA32/RPA14), full length, sequence (P15927 whole entry, chain 2 of 3, the tested form may be a part): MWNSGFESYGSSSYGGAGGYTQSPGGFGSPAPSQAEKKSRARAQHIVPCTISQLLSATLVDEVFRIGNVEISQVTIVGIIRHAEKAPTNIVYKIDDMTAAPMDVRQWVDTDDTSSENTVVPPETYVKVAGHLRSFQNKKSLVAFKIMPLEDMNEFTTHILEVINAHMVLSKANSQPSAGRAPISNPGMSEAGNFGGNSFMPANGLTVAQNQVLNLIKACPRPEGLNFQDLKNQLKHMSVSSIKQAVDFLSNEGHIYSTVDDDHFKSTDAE
RPA heterotrimer (RPA70/RPA32/RPA14), full length, sequence (P35244 whole entry, chain 3 of 3, the tested form may be a part): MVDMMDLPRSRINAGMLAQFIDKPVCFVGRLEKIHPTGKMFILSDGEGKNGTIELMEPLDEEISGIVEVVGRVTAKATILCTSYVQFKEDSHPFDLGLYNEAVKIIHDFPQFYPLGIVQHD

TTTTTTTTTTTTTTTTTTTTTTTTTTTTTT (ssDNA) [polyT 30mer]: binds [1]; binds [2].
